Assay results published in patent publication US20230049732A1 (UNIVERSITY OF LOUISVILLE RESEARCH FOUNDATION, published 2023).
Changes are numbered by the printed parent chain.

T1: HPV16 VLPs (human papillomavirus type 16, UniProt P03101 1-505)
T1 construct: Specificity control; also called human papillomavirus VLPs
T1 sequence: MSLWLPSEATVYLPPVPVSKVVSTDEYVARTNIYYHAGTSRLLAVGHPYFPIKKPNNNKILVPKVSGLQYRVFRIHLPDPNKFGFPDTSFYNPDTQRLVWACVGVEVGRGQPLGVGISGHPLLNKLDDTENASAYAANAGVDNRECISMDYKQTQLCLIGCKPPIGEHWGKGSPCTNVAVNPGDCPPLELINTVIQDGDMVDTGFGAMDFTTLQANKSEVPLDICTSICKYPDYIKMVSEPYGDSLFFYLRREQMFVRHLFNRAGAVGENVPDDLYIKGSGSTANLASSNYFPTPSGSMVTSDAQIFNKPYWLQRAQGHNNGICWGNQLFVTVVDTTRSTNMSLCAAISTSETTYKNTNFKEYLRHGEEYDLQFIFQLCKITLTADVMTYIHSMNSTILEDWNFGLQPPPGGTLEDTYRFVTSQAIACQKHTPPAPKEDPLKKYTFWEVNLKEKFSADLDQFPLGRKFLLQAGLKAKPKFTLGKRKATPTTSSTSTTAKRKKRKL

T2: QQW401TDQ-VLPs of B19V (parvovirus B19 genotype 1 (mutated), UniProt P07299 228-781)
T2 construct: also called construct B
T2 chain: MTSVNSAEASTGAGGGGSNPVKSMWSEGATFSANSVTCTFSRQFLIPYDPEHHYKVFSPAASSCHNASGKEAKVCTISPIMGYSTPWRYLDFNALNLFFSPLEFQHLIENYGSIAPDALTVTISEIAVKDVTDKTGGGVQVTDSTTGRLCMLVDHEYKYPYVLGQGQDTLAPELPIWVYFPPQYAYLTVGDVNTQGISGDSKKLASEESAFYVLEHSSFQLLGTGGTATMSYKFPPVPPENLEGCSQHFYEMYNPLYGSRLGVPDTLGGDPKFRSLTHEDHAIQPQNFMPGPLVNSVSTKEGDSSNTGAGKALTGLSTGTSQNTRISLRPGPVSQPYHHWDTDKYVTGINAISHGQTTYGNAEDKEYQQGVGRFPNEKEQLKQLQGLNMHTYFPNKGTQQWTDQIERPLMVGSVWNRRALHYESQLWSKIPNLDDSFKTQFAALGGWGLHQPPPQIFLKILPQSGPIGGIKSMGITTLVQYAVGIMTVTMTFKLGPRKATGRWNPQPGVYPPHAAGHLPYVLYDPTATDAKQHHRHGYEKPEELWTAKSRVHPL

T3: F401-VLPs of parvovirus B19 (parvovirus B19 genotype 1 (mutated), UniProt P07299 228-781)
T3 construct: also called F401-B19V; construct A
T3 chain: T2 chain with W401F

T4: N399N400F401TDT404-VLPs of parvovirus B19 (parvovirus B19 genotype 1 (mutated), UniProt P07299 228-781)
T4 construct: also called NNF401TDT-B19V; NNF401TDT
T4 chain: T2 chain with Q399N, Q400N, W401F, Q404T

B1: MAb #91 (antibody, V domains shown)
VH: EVQLQQSGPELVKPGASVKISCKASGYSFTDYFMNWVKQSHGKSLEWIGRINPYNGDSFYNQNFRGSVTLTVDKSSGTAHMELLSLTSEDSTVYYCGAYRYDGYAMDYWGQGTSVTVSS
VL: DVVMTQTPLSLPVSLGDQASISCRSSQSLVHSDGNTYLHWYLQKPGQSPKLLIYKVSNRFSGVPDRFSGSGSGTDFTLKISRVEAEDLGVYFCSQSTHVPFTFGSGTKLEIK
notes: Murine hybridoma antibody, supernatant; also called antibody 91
B2: MAb #25 (antibody, V domains shown)
VH: QVQLQQPGAELVRPGASVKLSCKASGYTFTNYWMHWVKQRPEQGLEWIGRIDPYDSETHYNQKFKDKAILTVDTSSNTAYMQLSSLTSEDSAVYYCTSYYYGSNYVWHFDVWGAGTTVTVSS
VL: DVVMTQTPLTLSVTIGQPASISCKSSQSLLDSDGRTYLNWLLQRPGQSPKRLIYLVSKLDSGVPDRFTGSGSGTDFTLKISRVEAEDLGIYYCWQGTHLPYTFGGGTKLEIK
notes: Murine hybridoma antibody, supernatant; also called antibody 25

Columns and labels:
HPV16 VLPs [1] = target: T1, HPV16 VLPs; assay: ELISA, VLPs coated
QQW401TDQ-VLPs of B19V = target: T2, QQW401TDQ-VLPs of B19V; assay: ELISA, intact VLPs coated, hybridoma supernatant
[2] = target: T3, F401-VLPs of parvovirus B19; assay: ELISA, intact VLPs coated, hybridoma supernatant
[3] = target: T4, N399N400F401TDT404-VLPs of parvovirus …; assay: ELISA, intact VLPs coated, hybridoma supernatant
HPV16 VLPs [4] = target: T1, HPV16 VLPs; assay: ELISA, intact VLPs coated, hybridoma supernatant

Binder | binding result (HPV16 VLPs [1]) | ELISA absorbance (405 nm) (QQW401TDQ-VLPs of B19V) | ELISA absorbance (405 nm) [2] | ELISA absorbance (405 nm) [3] | ELISA absorbance (405 nm) (HPV16 VLPs [4])
B1 | no binding | 1.64 | 3.01 | 3.86 | 0.005
B2 | no binding | 1.53 | 3.82 | 3.26 | 0.009
